The values that follow come from article PMC8575462, “PP2A/B55α substrate recruitment as defined by the retinoblastoma-related protein p107” (eLife, 2021).

To fix the notation:
B1: Myc-B55α wild type [not stated] / Flag-pRB [not stated] (parent complex)
chain 1: MAGAGGGNDIQWCFSQVKGAVDDDVAEADIISTVEFNHSGELLATGDKGGRVVIFQQEQENKIQSHSRGEYNVYSTFQSHEPEFDYLKSLEIEEKINKIRWLPQKNAAQFLLSTNDKTIKLWKISERDKRPEGYNLKEEDGRYRDPTTVTTLRVPVFRPMDLMVEASPRRIFANAHTYHINSISINSDYETYLSADDLRINLWHLEITDRSFNIVDIKPANMEELTEVITAAEFHPNSCNTFVYSSSKGTIRLCDMRASALCDRHSKLFEEPEDPSNRSFFSEIISSISDVKFSHSGRYMMTRDYLSVKIWDLNMENRPVETYQVHEYLRSKLCSLYENDCIFDKFECCWNGSDSVVMTGSYNNFFRMFDRNTKRDITLEASRENNKPRTVLKPRKVCASGKRKKDEISVDSLDFNKKILHTAWHPKENIIAVATTNNLYIFQDKVN
chain 2: MPPKTPRKTAATAAAAAAEPPAPPPPPPPEEDPEQDSGPEDLPLVRLEFEETEEPDFTALCQKLKIPDHVRERAWLTWEKVSSVDGVLGGYIQKKKELWGICIFIAAVDLDEMSFTFTELQKNIEISVHKFFNLLKEIDTSTKVDNAMSRLLKKYDVLFALFSKLERTCELIYLTQPSSSISTEINSALVLKVSWITFLLAKGEVLQMEDDLVISFQLMLCVLDYFIKLSPPMLLKEPYKTAVIPINGSPRTPRRGQNRSARIAKQLENDTRIIEVLCKEHECNIDEVKNVYFKNFIPFMNSLGLVTSNGLPEVENLSKRYEEIYLKNKDLDARLFLDHDKTLQTDSIDSFETQRTPRKSNLDEEVNVIPPHTPVRTVMNTIQQLMMILNSASDQPSENLISYFNNCTVNPKESILKRVKDIGYIFKEKFAKAVGQGCVEIGSQRYKLGVRLYYRVMESMLKSEEERLSIQNFSKLLNDNIFHMSLLACALEVVMATYSRSTSQNLDSGTDLSFPWILNVLNLKAFDFYKVIESFIKAEGNLTREMIKHLERCEHRIMESLAWLSDSPLFDLIKQSKDREGPTDHLESACPLNLPLQNNHTAADMYLSPVRSPKKKGSTTRVNSTANAETQATSAFQTQKPLKSTSLSLFYKKVYRLAYLRLNTLCERLLSEHPELEHIIWTLFQHTLQNEYELMRDRHLDQIMMCSMYGICKVKNIDLKFKIIVTAYKDLPHAVQETFKRVLIKEEEYDSIIVFYNSVFMQRLKTNILQYASTRPPTLSPIPHIPRSPYKFPSSPLRIPGGNIYISPLKSPYKISEGLPTPTKMTPRSRILVSIGESFGTSEKFQKINQMVCNSDRVLKRSAEGSNPPKPLKKLRFDIEGSDEADGSKHLPGESKFQQKLAEMTSTRTRMQKQKMNDSMDTSNKEEK

Variants of B1 are the subject of the test. Put plainly: co-immunoprecipitation (anti-Myc IP), western blot quantitation; 293T cells, co-transfected; read off a plot. For orientation: A western blot detects proteins with antibodies after separation by electrophoresis.
Turning to chain 1 MAGAGGGNDIQWCFSQVKGAVDDDVAEADIISTVEFNHSGELLATGDKGGRVVIFQQEQENKIQSHSRGEYNVYSTFQSHEPEFDYLKSLEIEEKINKIRWLPQKNAAQFLLSTNDKTIKLWKISERDKRPEGYNLKEEDGRYRDPTTVTTLRVPVFRPMDLMVEASPRRIFANAHTYHINSISINSDYETYLSADDLRINLWHLEITDRSFNIVDIKPANMEELTEAITAAEFHPNSCNTFVYSSSKGTIRLCDMRASALCDRHSKLFEEPEDPSNRSFFSEIISSISDVKFSHSGRYMMTRDYLSVKIWDLNMENRPVETYQVHEYLRSKLCSLYENDCIFDKFECCWNGSDSVVMTGSYNNFFRMFDRNTKRDITLEASRENNKPRTVLKPRKVCASGKRKKDEISVDSLDFNKKILHTAWHPKENIIAVATTNNLYIFQDKVN [chain 1 V228A], the ratio to parent is around 0.85.

Consider chain 1 MAGAGGGNDIQWCFSQVKGAVDDDVAEADIISTVEFNHSGELLATGDKGGRVVIFQQEQENKIQSHSRGEYNVYSTFQSHEPEFDYLKSLEIEEKINKIRWLPQKNAAQFLLSTNDKTIKLWKISERDKRPEGYNLKEEDGRYRDPTTVTTLRVPVFRPMDLMVEASPRRIFANAHTYHINSISINSDYETYLSADDLRINLWHLEITDRSFNIVDIKPANMEELTEVITAAEFHPNSCNTFVYSSSKGTIRLCDMRASALCDRHSKLFEEPEDPSNRSFFSEIISSISDVKFSHSGRYMMTRDYLSVKIWDLNMENRPVETYQVHEYLRSKLCSLYENDCIFDAFECCWNGSDSVVMTGSYNNFFRMFDRNTKRDITLEASRENNKPRTVLKPRKVCASGKRKKDEISVDSLDFNKKILHTAWHPKENIIAVATTNNLYIFQDKVN [chain 1 K345A], for which the ratio to parent was around 0.65.

For chain 1 MAGAGGGNDIQWCFSQVKGAVDDDVAEADIISTVEFNHSGELLATGDKGGRVVIFQQEQENKIQSHSRGEYNVYSTFQSHEPEFDYLKSLEIEEKINKIRWLPQKNAAQFLLSTNDKTIKLWKISERDKRPEGYNLKEEDGRYRDPTTVTTLRVPVFRPMDLMVEASPRRIFANAHTYHINSISINSDYETYLSADDLRINLWHLEITDRSFNIVDIKPANMEELTEVITAAEFHPNSCNTFVYSSAKGTIRLCDMRASALCDRHSKLFEEPEDPSNRSFFSEIISSISDVKFSHSGRYMMTRDYLSVKIWDLNMENRPVETYQVHEYLRSKLCSLYENDCIFDKFECCWNGSDSVVMTGSYNNFFRMFDRNTKRDITLEASRENNKPRTVLKPRKVCASGKRKKDEISVDSLDFNKKILHTAWHPKENIIAVATTNNLYIFQDKVN [chain 1 S247A], the ratio to parent was around 1.5.

For the variant chain 1 MAGAGGGNDIQWCFSQVKGAVDDDVAEADIISTVEFNHSGELLATGDKGGRVVIFQQEQENKIQSHSRGEYNVYSTFQSHEPEFDYLKSLEIEEKINAIRWLPQKNAAQFLLSTNDKTIKLWKISERDKRPEGYNLKEEDGRYRDPTTVTTLRVPVFRPMDLMVEASPRRIFANAHTYHINSISINSDYETYLSADDLRINLWHLEITDRSFNIVDIKPANMEELTEVITAAEFHPNSCNTFVYSSSKGTIRLCDMRASALCDRHSKLFEEPEDPSNRSFFSEIISSISDVKFSHSGRYMMTRDYLSVKIWDLNMENRPVETYQVHEYLRSKLCSLYENDCIFDKFECCWNGSDSVVMTGSYNNFFRMFDRNTKRDITLEASRENNKPRTVLKPRKVCASGKRKKDEISVDSLDFNKKILHTAWHPKENIIAVATTNNLYIFQDKVN [chain 1 K98A], the ratio to parent was around 0.65.

On to chain 1 MAGAGGGNDIQWCFSQVKGAVDDDVAEADIISTVEFNHSGELLATGDKGGRVVIFQQEQENKIQSHSRGEYNVYSTFQSHEPEFDYLKSLEIEEKINKIRWLPQKNAAQFLLSTNDKTIKLWKISERDKRPEGYNLKEEDGRYRDPTTVTTLRVPVFRPMDLMVEASPRRIFANAHTYHINSISINSDYETYLSADDLRINLWHLEITDRSFNIVDIKPANMEEATEVITAAEFHPNSCNTFVYSSSKGTIRLCDMRASALCDRHSKLFEEPEDPSNRSFFSEIISSISDVKFSHSGRYMMTRDYLSVKIWDLNMENRPVETYQVHEYLRSKLCSLYENDCIFDKFECCWNGSDSVVMTGSYNNFFRMFDRNTKRDITLEASRENNKPRTVLKPRKVCASGKRKKDEISVDSLDFNKKILHTAWHPKENIIAVATTNNLYIFQDKVN [chain 1 L225A], for which the ratio to parent was around 0.2.

As to chain 1 MAGAGGGNDIQWCFSQVKGAVDDDVAEADIISTVEFNHSGELLATGDKGGRVVIFQQEQENKIQSHSRGEYNVYSTFQSHEPEFDYLKSLEIEEKINKIRWLPQKNAAQFLLSTNDKTIKLWKISERDKRPEGYNLKEEDGRYRDPTTVTTLRVPVFRPMDLMVEASPRRIFANAHTYHINSISINSDYETYLSADKLRINLWHLEITDRSFNIVDIKPANMEELTEVITAAEFHPNSCNTFVYSSSKGTIRLCDMRASALCDRHSKLFEEPEDPSNRSFFSEIISSISDVKFSHSGRYMMTRDYLSVKIWDLNMENRPVETYQVHEYLRSKLCSLYENDCIFDKFECCWNGSDSVVMTGSYNNFFRMFDRNTKRDITLEASRENNKPRTVLKPRKVCASGKRKKDEISVDSLDFNKKILHTAWHPKENIIAVATTNNLYIFQDKVN [chain 1 D197K], the ratio to parent is around -0.2.

Turning to chain 1 MAGAGGGNDIQWCFSQVKGAVDDDVAEADIISTVEFNHSGELLATGDKGGRVVIFQQEQENKIQSHSRGEYNVYSTFQSHEPEFDYLKSLEIEEKINKIRWLPQKNAAQFLLSTNDKTIKLWKISERDKRPEGYNLKEEDGRYRDPTTVTTLRVPVFRPMDLMVEASPRRIFANAHTYHINSISINSDYETYLSADDLRINLWHLEITDRSFNIVDIKPANMEELTEVITAAEFHPNSCNTFVYSSSKGTIRLCDMRASALCDRHSKLFEEPEDPSNRSFFSAIISSISDVKFSHSGRYMMTRDYLSVKIWDLNMENRPVETYQVHEYLRSKLCSLYENDCIFDKFECCWNGSDSVVMTGSYNNFFRMFDRNTKRDITLEASRENNKPRTVLKPRKVCASGKRKKDEISVDSLDFNKKILHTAWHPKENIIAVATTNNLYIFQDKVN [chain 1 E283A], the ratio to parent was around 0.3.

Turning to chain 1 MAGAGGGNDIQWCFSQVKGAVDDDVAEADIISTVEFNHSGELLATGDKGGRVVIFQQEQENKIQSHSRGEYNVYSTFQSHEPEFDYLKSLEIEEKINKIRWLPQKNAAQFLLSTNDKTIKLWKISERDKRPEGYNLKEEDGRYRDPTTVTTLRVPVFRPMDLMVEASPRRIFANAHTYAINSISINSDYETYLSADDLRINLWHLEITDRSFNIVDIKPANMEELTEVITAAEFHPNSCNTFVYSSSKGTIRLCDMRASALCDRHSKLFEEPEDPSNRSFFSEIISSISDVKFSHSGRYMMTRDYLSVKIWDLNMENRPVETYQVHEYLRSKLCSLYENDCIFDKFECCWNGSDSVVMTGSYNNFFRMFDRNTKRDITLEASRENNKPRTVLKPRKVCASGKRKKDEISVDSLDFNKKILHTAWHPKENIIAVATTNNLYIFQDKVN [chain 1 H179A], the ratio to parent is around 0.8.
